Sequences and labels used below:
B1: Envelope glycoprotein B (Human herpesvirus 8), F5HB81 (parent)
chain: MTPRSRLATLGTVILLVCFCAGAAHSRGDTFQTSSSPTPPGSSSKAPTKPGEEASGPKSVDFYQFRVCSASITGELFRFNLEQTCPDTKDKYHQEGILLVYKKNIVPHIFKVRRYRKIATSVTVYRGLTESAITNKYELPRPVPLYEISHMDSTYQCFSSMKVNVNGVENTFTDRDDVNTTVFLQPVEGLTDNIQRYFSQPVIYAEPGWFPGIYRVRTTVNCEIVDMIARSAEPYNYFVTSLGDTVEVSPFCYNESSCSTTPSNKNGLSVQVVLNHTVVTYSDRGTSPTPQNRIFVETGAYTLSWASESKTTAVCPLALWKTFPRSIQTTHEDSFHFVANEITATFTAPLTPVANFTDTYSCLTSDINTTLNASKAKLASTHVPNGTVQYFHTTGGLYLVWQPMSAINLTHAQGDSGNPTSSPPPSASPMTTSASRRKRRSASTAAAGGGGSTDNLSYTQLQFAYDKLRDGINQVLEELSRAWCREQVRDNLMWYELSKINPTSVMTAIYGRPVSAKFVGDAISVTECINVDQSSVNIHKSLRTNSKDVCYARPLVTFKFLNSSNLFTGQLGARNEIILTNNQVETCKDTCEHYFITRNETLVYKDYAYLRTINTTDISTLNTFIALNLSFIQNIDFKAIELYSSAEKRLASSVFDLETMFREYNYYTHRLAGLREDLDNTIDMNKERFVRDLSEIVADLGGIGKTVVNVASSVVTLCGSLVTGFINFIKHPLGGMLMIIIVIAIILIIFMLSRRTNTIAQAPVKMIYPDVDRRAPPSGGAPTREEIKNILLGMHQLQQEERQKADDLKKSTPSVFQRTANGLRQRLRGYKPLTQSLDISPETGE

In the assay the parent is B1. The following applies: with itb3_human ITGB3, P05106.
itb3_human ITGB3, P05106, sequence (P05106 whole entry): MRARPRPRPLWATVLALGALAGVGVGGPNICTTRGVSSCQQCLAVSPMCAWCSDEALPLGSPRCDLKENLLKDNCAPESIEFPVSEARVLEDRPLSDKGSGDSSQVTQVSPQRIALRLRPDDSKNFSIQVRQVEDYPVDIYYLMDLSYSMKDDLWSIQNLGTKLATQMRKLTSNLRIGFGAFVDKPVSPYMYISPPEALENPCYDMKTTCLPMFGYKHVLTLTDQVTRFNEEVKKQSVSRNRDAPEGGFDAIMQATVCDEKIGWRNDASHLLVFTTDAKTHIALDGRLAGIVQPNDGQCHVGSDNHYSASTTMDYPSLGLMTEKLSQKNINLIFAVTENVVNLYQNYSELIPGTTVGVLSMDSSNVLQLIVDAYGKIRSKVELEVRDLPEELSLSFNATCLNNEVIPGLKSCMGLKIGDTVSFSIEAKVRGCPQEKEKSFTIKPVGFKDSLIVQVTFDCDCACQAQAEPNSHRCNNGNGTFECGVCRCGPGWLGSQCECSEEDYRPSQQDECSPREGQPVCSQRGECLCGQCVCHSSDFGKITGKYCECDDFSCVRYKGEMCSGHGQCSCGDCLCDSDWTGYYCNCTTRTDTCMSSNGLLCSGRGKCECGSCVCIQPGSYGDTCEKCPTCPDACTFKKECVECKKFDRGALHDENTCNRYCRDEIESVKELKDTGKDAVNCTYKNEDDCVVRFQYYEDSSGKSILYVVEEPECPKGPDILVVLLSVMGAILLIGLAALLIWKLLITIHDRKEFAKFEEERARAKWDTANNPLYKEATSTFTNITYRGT
Turning to D29E, the “effect of a mutation on the interaction” value is recorded as “disrupting interaction”.

Source of the values: IntAct's records for PubMed 18045938.
